B1: B8-mIgA1 (antibody, V domains shown)
VH: EVQLVQSGAEVKKPGSSVKVSCKASGGTFSNYGISWVRQAPGQGLEWMGRILPTFGTANSAQKFQGRVTITADESTGTAYMELRSLRSEDTAVYYCAKEGLAFLGYGMDVWGQGTTVTVSS
VL: EIVLTQSPGTLSLSPGERATLSCRASQSVSSYLAWYQQKPGQAPRLLIYDASNRATGIPARFIGSGSGTDFTLTISSLEPEDFAVYFCQQRSNWPLTFGGGTKVEIK
B2: B8-dIgA2 (antibody, V domains shown)
VH: B1 VH
VL: B1 VL
B3: B8 Fab (Fab, V domains shown)
VH: B1 VH
VL: B1 VL
B4: B8-dIgA1 (antibody, V domains shown)
VH: B1 VH
VL: B1 VL
B5: B8-IgG1 (antibody, V domains shown)
VH: B1 VH
VL: B1 VL
B6: B8-mIgA2 (antibody, V domains shown)
VH: B1 VH
VL: B1 VL

How the values were obtained:
[1] = molecular target: recombinant trimeric spike protein derived from SARS-CoV-2 (Sino Biological) (SARS-CoV-2, ancestral (Wuhan-Hu-1) …, UniProt P0DTC2); test: ELISA
[2] = molecular target: SARS-CoV-2 spike ectodomain trimer (SARS-CoV-2, ancestral (Wuhan-Hu-1) …, UniProt P0DTC2); test: cryo-EM structure

Binder	binding result [1]	binding result [2]
B1	binds	–
B2	binds	–
B3	–	binds
B4	binds	–
B5	binds	–
B6	binds	–
